The target in assay [1] is T1, macaca GM-CSF (Macaca mulatta (identical in Macaca …, UniProt Q0MUT8 18-144 (Chlorocebus aethiops entry), limits assumed)).
T1 chain: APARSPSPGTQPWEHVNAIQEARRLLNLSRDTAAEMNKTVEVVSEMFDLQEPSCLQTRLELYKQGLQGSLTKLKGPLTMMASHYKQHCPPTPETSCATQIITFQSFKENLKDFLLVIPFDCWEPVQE
The assay can be described thus: cell-based or functional assay.

The target in assay [2] is T2, human GM-CSF T117 (human, UniProt P04141 18-144). Put plainly: cell-based or functional assay.
Target sequence in this assay (P04141 18-144 I117T limits assumed): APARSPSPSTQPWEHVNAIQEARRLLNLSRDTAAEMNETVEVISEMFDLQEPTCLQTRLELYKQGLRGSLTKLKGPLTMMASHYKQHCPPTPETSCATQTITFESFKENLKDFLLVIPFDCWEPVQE
Assay [3] concerns the target T3, human GM-CSF I117 (human, UniProt P04141 18-144). Put plainly: cell-based or functional assay.
Target sequence in this assay (P04141 18-144 limits assumed): as the sequence (P04141 18-144 I117T limits assumed) above, with T100I counted along it
The target of assay [4] is T1, macaca GM-CSF. Put plainly: KinExA, affinity in solution. On the procedure:
(§1) The 4K21 and reference antibodies were incubated at concentration below the expected Kd with serial dilutions of human GM-CSF I117 or T117, or macaca GM-CSF up to equilibrium. The remaining free antibody was measured in a Kinetic exclusion assay with the KinExA® instrument. Kd was calculated by fitting the curve of the signal obtained versus the GM-CSF concentrations. The average of two experiments using different IgG concentrations was calculated.
On the technique in general: In KinExA the mixture passes briefly over coated beads that capture the unbound partner.

Assay [5] concerns the target T2, human GM-CSF T117. The assay can be described thus: KinExA, affinity in solution. On the procedure: as §1
The target in assay [6] is T3, human GM-CSF I117. The assay can be described thus: KinExA, affinity in solution. On the procedure:
as §1

Assay [7] deals with T3, human GM-CSF I117. Put plainly: TF-1 proliferation assay and KinExA.
Assay [8] addresses T1, macaca GM-CSF. The assay can be described thus: cell-based or functional assay.
For assay [9], the target named is T2, human GM-CSF T117. Put plainly: cell-based or functional assay. This is another data set of the same source.
In assay [10] the target is T3, human GM-CSF I117. Put plainly: cell-based or functional assay. This is another data set of the same source.
Assay [11] addresses T1, macaca GM-CSF. The assay can be described thus: cell-based or functional assay.
The target of assay [12] is T1, macaca GM-CSF. The assay can be described thus: cell-based or functional assay.
Assay [13] has as its target T2, human GM-CSF T117. The assay can be described thus: cell-based or functional assay. This is another data set of the same source.
Assay [14] addresses T3, human GM-CSF I117. Put plainly: cell-based or functional assay. The source holds these as a separate data set.
For assay [15], the target named is T2, human GM-CSF T117. Put plainly: cell-based or functional assay. The source holds these as a separate data set.
For assay [16], the target named is T3, human GM-CSF I117. The assay can be described thus: cell-based or functional assay. This is another data set of the same source.
Assay [17] has as its target T4, human GM-CSF A117 mutant (human, UniProt P04141 18-144).
T4 construct: also called hGM-CSF A117; A117 protein
Put plainly: competition ELISA: antibody on coated wild-type human GM-CSF, competitor soluble human GM-CSF A117; single condition, competitor concentration not shown. Background: ELISA stands for enzyme-linked immunosorbent assay.

Here are results for three molecules from US20140065163A1 (MERCK SERONO S A, published 2014).

The Kd is the constant that tells how readily two partners part at equilibrium. Read a high Kd as lower affinity.

Numbering of substitutions follows the chain as printed. Names may count otherwise. Read-outs that look alike come from different tables or passages of the source. Bounds are passed on as bounds.

B1: anti-GM-CSF 4K21 hIgG1K antibody (MSB0010259), recombinant chimeric 4K21 (antibody, V domains shown)
VH: EVQLVESGGGLVKSGGSLKLSCAASGFAFSAYDMSWVRQTPEKRLELVAYISSGGSSFYYPDTVKGRFTISRDNAKNTLYLQMSSLKSEDTAMYYCTRHLGFDYWGQGTTLTVSS
VL: DVVMTQTPLSLPVSLGDQASISCRSSQSLVNSNGNTYLHWFLQKPGQSPKLLIYKVSNRFSGVPDRFSGSGSGTDFTLKISRVEAEDLGVYFCSQSTHVPPTFGGGTKLEIK
notes: Murine variable domains fused to human constant IgG1 heavy chain and kappa light chain domains
In the case of B1, in [1], the “Fold improvement of 4K21 H93Y alone on macaca (IC50, TF-1 proliferation)” value amounted to 0.1 fold; the “Fold improvement of humanized parental 4K21 on macaca (IC50, TF-1 proliferation)” value was determined as 0.7 fold; the “Fold macaca/human I117 (IC50, TF-1 proliferation)” value (shortened to “Fold macaca/human I117”) came to 9.3 fold; the “IC50, inhibition of GM-CSF induced TF-1 proliferation (32 pM GM-CSF)” value (from here on “IC50, inhibition … (32 pM GM-CSF)”) was 1220 pM. In assay [2], the “Fold human T117/I117 (IC50, TF-1 proliferation)” value (“Fold human T117/I117” below) was found to be 10.8 fold; the “Fold improvement of 4K21 H93Y alone on T117 (IC50, TF-1 proliferation)” value was 0.1 fold; the “Fold improvement of humanized parental 4K21 on T117 (IC50, TF-1 proliferation)” value is 1 fold; the “IC50, inhibition … (32 pM GM-CSF)” value was found to be 1410 pM. Moreover, in assay [3], the “Fold improvement of 4K21 H93Y alone on I117 (IC50, TF-1 proliferation)” value worked out at 0.2 fold; the “Fold improvement of humanized parental 4K21 on I117 (IC50, TF-1 proliferation)” value is 0.9 fold; the “IC50, inhibition … (32 pM GM-CSF)” value was 130 pM. In assay [4], this molecule gave a Kd of 0.104 nM. This molecule yielded a dissociation constant (Kd) in [5] of 0.174 nM. This molecule also registered a Kd in assay [6] of 0.017 nM.

B2: humanized parental anti-GM-CSF 4K21 VH3-07.1AL+VK2-A3.2 hIgG1K antibody (MSB0010439) (antibody, V domains shown)
VH: EVQLVESGGGLVQPGGSLRLSCAASGFAFSAYDMSWVRQAPGKRLELVAYISSGGSSFYYPDTVKGRFTISRDNAKNSLYLQMNSLRAEDTAVYYCTRHLGFDYWGQGTLVTVSS
VL: DIVMTQSPLSLPVTPGEPASISCRSSQSLVNSNGNTYLHWYLQKPGQSPQLLIYKVSNRFSGVPDRFSGSGSGTDFTLKISRVEAEDVGVYYCSQSTHVPPTFGQGTKVEIK
notes: Human IgG1 kappa; also called humanized parental 4K21 hVH hVL; parental 4K21
B2: in [7], the “fold preference for GM-CSF I117 versus T117” value is > 10 fold. In addition, the “Fold macaca/human I117” value in assay [8] stood at 5.7 fold; in [1] it was 6.6 fold. The “IC50, inhibition … (32 pM GM-CSF)” value in assay [8] turned out to be 557 pM; in assay [9], 947 pM; in [10] it was 98 pM; in [1], 793 pM; in assay [2] it was 1400 pM; in assay [3], 121 pM. Also, the “Fold human T117/I117” value worked out at 9.7 fold in assay [9] and 11.6 fold in assay [2]. Besides, the “Fold improvement of 4K21 H93Y alone on macaca (IC50, TF-1 proliferation)” value in [1] was found to be 0.1 fold. For the same molecule, the “Fold improvement of humanized parental 4K21 on macaca (IC50, TF-1 proliferation)” value in assay [1] was found to be 1 fold. Moreover, the “Fold improvement of 4K21 H93Y alone on T117 (IC50, TF-1 proliferation)” value in assay [2] is 0.1 fold. Besides, in [2], the “Fold improvement of humanized parental 4K21 on T117 (IC50, TF-1 proliferation)” value turned out to be 1 fold. Also, the “Fold improvement of 4K21 H93Y alone on I117 (IC50, TF-1 proliferation)” value in assay [3] was found to be 0.2 fold. Further, in assay [3], the “Fold improvement of humanized parental 4K21 on I117 (IC50, TF-1 proliferation)” value is 1 fold. Moreover, in assay [11], the “neutralizing the orthologs of cynomolgus and rhesus monkeys (TF-1 proliferation assay)” value was < 10 fold. Further, the Kd in assay [4] was found to be 0.063 nM; in [5], 0.164 nM; in assay [6], 0.021 nM. The “IC50, inhibition of GM-CSF induced IL-8 secretion in U937 cells (65 pM GM-CSF)” value (from here on “IC50, inhibition … (65 pM GM-CSF)”) in assay [12] stood at 1120 pM; in assay [13], 930 pM; in [14], 170 pM. The “Emax (%), inhibition of CD11b upregulation on neutrophils after GM-CSF stimulation” value (from here on “Emax (%), inhibition”) was found to be 68% in assay [15] and 65% in assay [16]. The “IC50, inhibition of CD11b upregulation on neutrophils after GM-CSF stimulation” value (“IC50, inhibition of CD11b upregulation” for short) in [15] worked out at 31.6 nM; in assay [16], 3.06 nM.

B3: MSB0010601 4K21 (4K21 hVH S55K-T62S hVL N28I-H34S-N53R-H93Y) (antibody, V domains shown)
VH: B2 VH with S56K, T63S
VL: B2 VL with N33I, H39S, N58R, H98Y
notes: IgG; also called optimized 4K21 antibody
Regarding B3, in [17], the binding result is listed as “binds”. Further, in assay [1], the “Fold improvement of 4K21 H93Y alone on macaca (IC50, TF-1 proliferation)” value was 1.8 fold; the “Fold improvement of humanized parental 4K21 on macaca (IC50, TF-1 proliferation)” value is 15 fold; the “Fold macaca/human I117” value is 2.3 fold; the “IC50, inhibition … (32 pM GM-CSF)” value is 53 pM. Also, in [2], the “Fold human T117/I117” value came to 0.9 fold; the “Fold improvement of 4K21 H93Y alone on T117 (IC50, TF-1 proliferation)” value is 8.3 fold; the “Fold improvement of humanized parental 4K21 on T117 (IC50, TF-1 proliferation)” value came out at 68 fold; the “IC50, inhibition … (32 pM GM-CSF)” value stood at 21 pM. Moreover, in assay [3], the “Fold improvement of 4K21 H93Y alone on I117 (IC50, TF-1 proliferation)” value turned out to be 1.3 fold; the “Fold improvement of humanized parental 4K21 on I117 (IC50, TF-1 proliferation)” value came out at 5.3 fold; the “IC50, inhibition … (32 pM GM-CSF)” value was determined as 23 pM. In assay [4], this molecule returned a dissociation constant Kd of 0.012 nM. In assay [5], this molecule returned a Kd of 0.005 nM. Also, in assay [6], the Kd was determined as 0.006 nM. The “IC50, inhibition … (65 pM GM-CSF)” value in assay [12] came out at 340 pM. The “IC50, inhibition … (65 pM GM-CSF)” value in [13] is 263 pM. Moreover, the “IC50, inhibition … (65 pM GM-CSF)” value in [14] came to 334 pM. Moreover, in assay [15], the “Emax (%), inhibition” value turned out to be 97% and the “IC50, inhibition of CD11b upregulation” value was 2.03 nM. Besides, in assay [16], the “Emax (%), inhibition” value came out at 79% and the “IC50, inhibition of CD11b upregulation” value was found to be 1.41 nM.
